Test: yeast display, Sf9 membrane polyspecificity reagent, FACS + sequencing; frameworks hold sequencing errors
Procedure, shortened: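 Sorting gates, low and high (top ~1%), were placed on anti-HA fluorescence to track expression and on streptavidin fluorescence to track reagent binding. A clone's polyreactivity label is taken from the gate it came out of. The reagent was 10% biotinylated, detergent-solubilized Sf9 membrane, applied for 1 hour at 4 °C to galactose-induced yeast display cells.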

| Sequence | polyreactivity (PSR sort gate) |
| --- | --- |
| QVQLEESGGGLVQAGGSLRLSCAASGFTFTPNAMGWYRQAPGKERELVAAINWSGGRTYYADSVKGRFTISRDNAKNTVYLQMNSLKPEDTAVYYCNVLKGRSYYPGMDYWGQGTQVTVSS | high polyreactivity |
| QVQLEESGGGLVQAGGSLRLSCAASGFTFVDYVMGWYRQAPGKERELVAAISRRAGRTYYADSVKGRFTNSRDNAKNTVYFQMNSLKREDTAVYSCAAYLSRSYYAYDYWGQGTQVTVSS | high polyreactivity |
| QVQLEESGGGLVQAGGSLRLSCAASGFTFVPYAMGWYRQAPGKERELVARITWSGGSTYYADSVKGRFTISRDNAKNTVYLQMNSLKPEDTAVYYCNLDTRYPGYWRVFAKNNYWGQGTQVTVSS | high polyreactivity |
| QVQLEESGGGLVQAGGSLRLSCAASGFTFYLYAMGWYRQAPGKERELVASISSGGRTYYADSVKGRFTISRDNAKNTVYLQMNSLKPEDTAVYYCAVSPYSRRKYEYYYWGQGTQVTVSS | high polyreactivity |
| QVQLEESGGGLVQAGGSLRLSCAASGFTIGYNAKGWYRQATRKERELVAAIRSTGSTNYADSVKGRFTISRDYAKNTVYLQMNSLKPEDTAVYYGAAGRNAAIVYDYDYWGQGTQVTVSS | low polyreactivity |
| QVQLEESGGGLVQAGGSLRLSCAASGFTLDTYAMGWYRQAPGKERELVAAITSRGGTTYYADSVKGRFTISRDNAKNTVYLQMNSLKPEDTAVYYCNAVTKRWWYRTGYGYWGQGTQVTVSS | high polyreactivity |
| QVQLEESGGGLVQAGGSLRLSCAASGFTLRGYAMGWYRQAPGKERELVAAINGGGSTYYADSVKGRFTISRDNAKNTVYLQMNSLKPEDTAVYYCAVRIRKTAFRVLRYNYWGQGTQVTVSS | high polyreactivity |
| QVQLEESGGGLVQAGGSLRLSCAASGGTFDEYAMGWSRQAPGKERELVATISWNSGSTYYADSVKGRFTISRDNAKNTVYLQMNSLKPEDTAVYYCATGRNVGVWSDDYWGQGTQVTVSS | high polyreactivity |
| QVQLEESGGGLVQAGGSLRLSCAASGGTFGWYAMGWYRPAPGTERELVAAITSSGGTTFYADSVKGRFTISRDTAKNTVYLQMNSLKPEDTAVYYCAKRGKRPTRYKLGKYDYWGQGTQVTVSS | high polyreactivity |
| QVQLEESGGGLVQAGGSLRLSCAASGIFSRYAMGWDRQAPGKERELVAAISSRGSTYYADSVKGRFTISRDNAKYTVYLQLNSMKPEDTGVYYCAATVGRGKLDYWGQGTQVNVSS | high polyreactivity |
| QVQLEESGGGLVQAGGSLRLSCAASGIIFHEYALGWYRQAPGKERELDASISWNDGSTYADSVKGRFTISRDNAKNTVYLQMNSQKPEDTAVYYCAADYPYYPFSSIYDYWGQGTQVTVSS | low polyreactivity |
| QVQLEESGGGLVQAGGSLRLSCAASGIIFRCYCMGWYRQAPGKDRELVATITSGGRTNYADSVKGRFTISRDKAKNTVYLQMNSLNTEDTAVYYCAAARLFAMDYWGQGTQVTVSS | low polyreactivity |
| QVQLEESGGGLVQAGGSLRLSCAASGIIFRLYAMGRYRQAPGKERELVAAISSGGSTNYADSVKGRFTISRDNAKNTVYLQMNSLKPEDTAVYYCAAGKAHNYDYWGQGTQVTVSS | low polyreactivity |
| QVQLEESGGGLVQAGGSLRLSCAASGIISTYYVMGWYRQAPGKERELVAAITGGDSSTYYADSVKGRFTISRDTAKNTVYLQMNSLIPDDTAVYYCAKEYYYARGARYDYWGQGTQVTVSS | low polyreactivity |
| QVQLEESGGGLVQAGGSLRLSCAASGITFDDYTMGWYRQAPGKERELVAAITRSGGSTYYADSVKGRFTISRDTAKITVSLQMNSLKPEDTAVYYCSRVKGRGFKNGYWGQGTKVTVSS | high polyreactivity |
| QVQLEESGGGLVQAGGSLRLSCAASGITFLNYAMGWYRQATGKERELVAAISWSGGRTYYADSVKGRFTISRDNAKNTVYLQMNSLKPEDTAVYYCAVRGSWYSEHNYWGQGTQVTVSS | high polyreactivity |
| QVQLEESGGGLVQAGGSLRLSCAASGITFNSYAMGSYRQAPGKERELVAAISGSGSSTYYADSVKGRFTISRDNAKNTVYLQMTSLKPEDTAVYYCAATGYSSWTFYTHEYWGQGTQVTVSS | low polyreactivity |
| QVQLEESGGGLVQAGGSLRLSCAASGLIFITYAMGWYRQAPGKERELVATITLRGGSTYYADSVKGRFTISRDNAKNTVYLQMNSLKPEDTAVYYCAADVGYWGRSRGYPSDDYDYWGQGTQVTVSS | low polyreactivity |
| QVQLEESGGGLVQAGGSLRLSCAASGLIYSSYAMGWYRQAPGKERELVAAIRSGGNTNYADSVKGRFTISRDNAKNTVYLQMNSLKPEDTAVYYCADGTYSRPYYRTFDHWGQGTQVTVSS | low polyreactivity |
| QVQLEESGGGLVQAGGSLRLSCAASGNTFYKYTMGWYRQAPGKERELLAAITWSGGSTYYADSVKGRFTISRDNAKNTVYLQMNSLKPEDTAVYYCNADDYQYKTWYHLDYWGQGTQVTVSS | low polyreactivity |
| QVQLEESGGGLVQAGGSLRLSCAASGNTSPVNAMGWYRQAPGKERELVAAITQSGGSTYYADSLKGRFTISRDNAKITVYFQMNSLKPQDTAVYYCAADVLGPQYWWYDYWGQGTQVTVSS | low polyreactivity |
| QVQLEESGGGLVQAGGSLRLSCAASGRIFGGNAMGWYRQAPGKERELVAAINSSGGRTYYADSLKGRFTISRDNAKYTVYLQMNSLKTEDTAVYYCSARVVGNWYDYWGQGTQVTVSS | high polyreactivity |

| Sequence | polyreactivity (PSR sort gate) |
| --- | --- |
| QVQLEESGGGLVQAGGSLRLSCAASGRIFGRNARGWYRQAPVKERELVAAISWRGGNTYYADSVKGRFTISRDNAKNTVYLQMKSLKAEDTAFYYCNTVQSRNEMGYWGQGTQVTVSS | high polyreactivity |
| QVQLEESGGGLVQAGGSLRLSCAASGRIFGSYAMGWYRQAAGNERELVAAITRSGGSTYYADSVKGRFTISRDNAKNTVYLQMNSLTPEDTAVYYCAAYFRFSGSAKFGYWGQGTQVTVSS | high polyreactivity |
| QVQLEESGGGLVQAGGSLRLSCAASGRIFGVNAMGWYRQAPGKERELVAAIRYSGGSTYYADSVKGRFTISRDNAKNTVYLQMNSLKPEDTAVYYCARDVWNYWDGVFQYYSYDFDYWGQGTQVTVSS | low polyreactivity |
| QVQLEESGGGLVQAGGSLRLSCAASGRIFRANAMGRYRQAPGKERELVADITRRGASTYYADSVKGRFTISRDNAKNTVYLQMNSLKPEDTAVYYCNARGWPSSLLYLRDRYQMDYWGQGTQVTVSS | low polyreactivity |
| QVQLEESGGGLVQAGGSLRLSCAASGRIFRANSMGWYRQEPGKERELVAAISFSGGGTYYADSVKGRFKISRDNAKNTVYLQMNCLKPEDTAVYYCAADWYVYSPYDYWGQGTQVTVSS | low polyreactivity |
| QVQLEESGGGLVQAGGSLRLSCAASGRIFSRYAMGWYRQAPGKERELVAAITQSGTSTYYADSVKGRFTISRDNAKNTVYLQMTSLKPEDTAVYYCNAYRQYRYDYWGQGTQVTVSS | low polyreactivity |
| QVQLEESGGGLVQAGGSLRLSCAASGRIFYRYAMGWYRQAPGKERELVAAISSGGSTYYADSVKGRFTISRDNAKNTVYLQMNSLKPDDTAVYYCAATWGRGTYYLYYYWGQGTQVTVSS | high polyreactivity |
| QVQLEESGGGLVQAGGSLRLSCAASGRLFGDNAMGWYSQAPGKERELVAAISDSGGSTYYADSVKGRFTISRDNAKNTVYLQMNSLKPEDTAVYYCAAEYIVRWYWYYYWGQGTQVTVSS | high polyreactivity |
| QVQLEESGGGLVQAGGSLRLSCAASGRPCWLMLWDGIDRRLGKKGSWLPLTASTYYADSVKGRFTISRDNAKNTVYLQMNSLKPEDTAVYYCAADLYYGDYRTLPIADEYDYWGQGTQVTVSS | low polyreactivity |
| QVQLEESGGGLVQAGGSLRLSCAASGRTFALYAMGWYRQAPGKERELVASISWRGGSTYYADSVKGRFTISRDNAKNTVYLQMNSLKPEDTAVYYCAADTWSYGPLNYRLEYWGQGTQVTVSS | low polyreactivity |
| QVQLEESGGGLVQAGGSLRLSCAASGRTFAYYFMGWYRQAPGKERQLVAAISGSGGSTYYADSVKGRFTISRDNAKNTVYLQMNSLKPEDTAVYYCAAQYAYGGYDYWGQGTQVTVSS | high polyreactivity |
| QVQLEESGGGLVQAGGSLRLSCAASGRTFDRNTMGWYRQAPGKERELVASITSSGASTYYADSVKGRFTISRDNAKNTVYLQINSLKPVDTSVYYCAARTYTGNYSNSKYYYWGQGTEVTVSS | high polyreactivity |
| QVQLEESGGGLVQAGGSLRLSCAASGRTFGVYAMGWYRQAPGKERELVAGIRWRGGSTYYADSVKGRFTISRDNAKNTVYLQMNSLKPEDTAVYYCAADVYLVKYDYWGQGTQVTVSS | low polyreactivity |
| QVQLEESGGGLVQAGGSLRLSCAASGRTFIKYAMGWYRQAPVNESELVAAITYSAGSTSYADSVKGRFTISRDNAKNTVYLQMNSRKPVDTAVYYCARRTRSYGYRSDYYYWGQGTQVTVSS | low polyreactivity |
| QVQLEESGGGLVQAGGSLRLSCAASGRTFRTYTMGWYRQAPGTERELVAANSKRGSSTYYADSVKGRFTISRDNAKNTVYLQMNSLKPEDTAVYYCAARSWLSNSPYGYWGQGTQVTVSS | high polyreactivity |
| QVQLEESGGGLVQAGGSLRLSCAASGRTFSYNAMGWYRQPPGKEREFVAAITWRGSSTYYADSVKWRFTISRDYEKNTVYLQMNSLIPDDTAVYECNARATNVIWGRYDYWGQGTQVTVSS | high polyreactivity |
| QVQLEESGGGLVQAGGSLRLSCAASGRTFTLNAMGWYRQAPGKEREFVAAISNSGVRTYYADSVKGRFTISRDNAKNTVYLQMNSLKPEDTAVYYCARTYQVGDSIDDYWGQGTQVTVSS | low polyreactivity |
| QVQLEESGGGLVQAGGSLRLSCAASGRTFVYNTKGWYRQAPGKERELVAAITSSGGRTSYADSVKGRFTISRDNAKNTVYLQMNSLKPEDTAVYYCAKDRYTSSTQYRRYDYWGQGTQVTVSS | high polyreactivity |
| QVQLEESGGGLVQAGGSLRLSCAASGRTFWVYAMGWYRQAPGKERELVAAISRSGVSTYYADSVKGRFTISRDNAKNTVYLQMNSLKPEDTAVYYWAAEARVQFSYDYWGQGTQVTVSS | low polyreactivity |
| QVQLEESGGGLVQAGGSLRLSCAASGRTFYHYAMGWYRQAPGKERELVAGITDGTITTDADSVKGRFTISRDNAKNTVYLQMNSLKPEDTAVYYCNVGYSDWWRSWAMDYWGQGTQVTVSS | high polyreactivity |
| QVQLEESGGGLVQAGGSLRLSCAASGSIFDTYAMGWYRQAPGNERELVAAISSGGRTYYADSVKGRFTISRDNAKNTVYLQMNSLKPEDTAVYYCNARYHARYGGDYWGQGTQVTVSS | high polyreactivity |

From the nanobody polyreactivity screen of Harvey et al. (2022)
